Experimental findings from paper PMC9409100 are described below.

What all share (assay): pull-down
For data set [1], the target named is T1, His6-Myc-Csy4* (inactive Csy4) H29A;S50C (Pseudomonas aeruginosa) (UniProt Q02MM2).
T1 sequence: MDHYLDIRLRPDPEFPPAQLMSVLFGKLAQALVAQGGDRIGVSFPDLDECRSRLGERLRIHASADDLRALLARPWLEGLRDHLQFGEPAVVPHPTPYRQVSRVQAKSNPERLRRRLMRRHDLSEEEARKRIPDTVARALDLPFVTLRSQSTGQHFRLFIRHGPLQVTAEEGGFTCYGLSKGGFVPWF
The settings on record: no imidazole; 'almost 50%'; RNA folded in 20 mM Tris-HCl pH 7.5, 100 mM (salt not given), 3 mM MgCl2; binding 90 min at 4 C on beads; RNA binding buffer 20 mM Tris-HCl pH 7.5, 100 mM ….

Data set [2] concerns the target T2, His6-TwinStrep-Csy4* (inactive Csy4) H29A;S50C (Pseudomonas aeruginosa) (UniProt Q02MM2).
T2 sequence: T1 sequence
The settings on record: no imidazole; RNA folded in 20 mM Tris-HCl pH 7.5, 100 mM (salt not given), 3 mM MgCl2; binding 90 min at 4 C on beads; RNA binding buffer 20 mM Tris-HCl pH 7.5, 100 mM ….

Data set [3] concerns the target T3, His6-MBP-Csy4* (inactive Csy4) H29A;S50C (Pseudomonas aeruginosa) (UniProt Q02MM2).
T3 sequence: T1 sequence
The settings on record: no imidazole; RNA folded in 20 mM Tris-HCl pH 7.5, 100 mM (salt not given), 3 mM MgCl2; binding 90 min at 4 C on beads; RNA binding buffer 20 mM Tris-HCl pH 7.5, 100 mM ….

Take “GGGUUCACUGCCGUAUAGGCAGAUAUAGAAGGUAGUGGAUCUCGACAGGGUUGAUAUGAGAACACACGAGUAAUCAACGGCUGUAAUGACGCUACGUCAUUGUUACAGCUCUCGUUUUCAUGUGUUCUCAGGUCACCCCUGCUGAGCUCUUUCUCUACCGUAAUUAC [Csy4-hairpin-tagged pri-miR398b-SL]”: the binding signal (% transcript depleted from supernatant) in data set [1] was 50; in data set [2], under 10; in data set [3] it was 80.
